Experimental data published in PMC10540216, “Activity Guided Azide-methyllysine Photo-trapping for Substrate Profiling of Lysine Demethylases” (Journal of the American Chemical Society, 2023).

B1: PYC_HUMAN (protein, UniProt P11498 21-1178, looked up)
Pyruvate carboxylase, …: TAPAASPNVRRLEYKPIKKVMVANRGEIAIRVFRACTELGIRTVAIYSEQDTGQMHRQKADEAYLIGRGLAPVQAYLHIPDIIKVAKENNVDAVHPGYGFLSERADFAQACQDAGVRFIGPSPEVVRKMGDKVEARAIAIAAGVPVVPGTDAPITSLHEAHEFSNTYGFPIIFKAAYGGGGRGMRVVHSYEELEENYTRAYSEALAAFGNGALFVEKFIEKPRHIEVQILGDQYGNILHLYERDCSIQRRHQKVVEIAPAAHLDPQLRTRLTSDSVKLAKQVGYENAGTVEFLVDRHGKHYFIEVNSRLQVEHTVTEEITDVDLVHAQIHVAEGRSLPDLGLRQENIRINGCAIQCRVTTEDPARSFQPDTGRIEVFRSGEGMGIRLDNASAFQGAVISPHYDSLLVKVIAHGKDHPTAATKMSRALAEFRVRGVKTNIAFLQNVLNNQQFLAGTVDTQFIDENPELFQLRPAQNRAQKLLHYLGHVMVNGPTTPIPVKASPSPTDPVVPAVPIGPPPAGFRDILLREGPEGFARAVRNHPGLLLMDTTFRDAHQSLLATRVRTHDLKKIAPYVAHNFSKLFSMENWGGATFDVAMRFLYECPWRRLQELRELIPNIPFQMLLRGANAVGYTNYPDNVVFKFCEVAKENGMDVFRVFDSLNYLPNMLLGMEAAGSAGGVVEAAISYTGDVADPSRTKYSLQYYMGLAEELVRAGTHILCIKDMAGLLKPTACTMLVSSLRDRFPDLPLHIHTHDTSGAGVAAMLACAQAGADVVDVAADSMSGMTSQPSMGALVACTRGTPLDTEVPMERVFDYSEYWEGARGLYAAFDCTATMKSGNSDVYENEIPGGQYTNLHFQAHSMGLGSKFKEVKKAYVEANQMLGDLIKVTPSSKIVGDLAQFMVQNGLSRAEAEAQAEELSFPRSVVEFLQGYIGVPHGGFPEPFRSKVLKDLPRVEGRPGASLPPLDLQALEKELVDRHGEEVTPEDVLSAAMYPDVFAHFKDFTATFGPLDSLNTRLFLQGPKIAEEFEVELERGKTLHIKALAVSDLNRAGQRQVFFELNGQLRSILVKDTQAMKEMHFHPKALKDVKGQIGAPMPGKVIDIKVVAGAKVAKGQPLCVLSAMKMETVVTSPMEGTVRKVHVTKDMTLEGDDLILEIE
B2: PREP_HUMAN (protein, UniProt Q5JRX3 29-1037, looked up)
Presequence protease, …: NSNRACERALQYKLGDKIHGFTVNQVTSVPELFLTAVKLTHDDTGARYLHLAREDTNNLFSVQFRTTPMDSTGVPHILEHTVLCGSQKYPCRDPFFKMLNRSLSTFMNAFTASDYTLYPFSTQNPKDFQNLLSVYLDATFFPCLRELDFWQEGWRLEHENPSDPQTPLVFKGVVFNEMKGAFTDNERIFSQHLQNRLLPDHTYSVVSGGDPLCIPELTWEQLKQFHATHYHPSNARFFTYGNFPLEQHLKQIHEEALSKFQKIEPSTVVPAQTPWDKPREFQITCGPDSFATDPSKQTTISVSFLLPDITDTFEAFTLSLLSSLLTSGPNSPFYKALIESGLGTDFSPDVGYNGYTREAYFSVGLQGIAEKDIETVRSLIDRTIDEVVEKGFEDDRIEALLHKIEIQMKHQSTSFGLMLTSYIASCWNHDGDPVELLKLGNQLAKFRQCLQENPKFLQEKVKQYFKNNQHKLTLSMRPDDKYHEKQAQVEATKLKQKVEALSPGDRQQIYEKGLELRSQQSKPQDASCLPALKVSDIEPTIPVTELDVVLTAGDIPVQYCAQPTNGMVYFRAFSSLNTLPEELRPYVPLFCSVLTKLGCGLLDYREQAQQIELKTGGMSASPHVLPDDSHMDTYEQGVLFSSLCLDRNLPDMMQLWSEIFNNPCFEEEEHFKVLVKMTAQELANGIPDSGHLYASIRAGRTLTPAGDLQETFSGMDQVRLMKRIAEMTDIKPILRKLPRIKKHLLNGDNMRCSVNATPQQMPQTEKAVEDFLRSIGRSKKERRPVRPHTVEKPVPSSSGGDAHVPHGSQVIRKLVMEPTFKPWQMKTHFLMPFPVNYVGECIRTVPYTDPDHASLKILARLMTAKFLHTEIREKGGAYGGGAKLSHNGIFTLYSYRDPNTIETLQSFGKAVDWAKSGKFTQQDIDEAKLSVFSTVDAPVAPSDKGMDHFLYGLSDEMKQAHREQLFAVSHDKLLAVSDRYLGTGKSTHGLAILGPENPKIAKDPSWIIQ
B3: KRT83_HUMAN (protein, UniProt P78385 1-493, looked up)
Keratin, type II cuticular Hb3: MTCGFNSIGCGFRPGNFSCVSACGPRPSRCCITAAPYRGISCYRGLTGGFGSHSVCGGFRAGSCGRSFGYRSGGVCGPSPPCITTVSVNESLLTPLNLEIDPNAQCVKQEEKEQIKSLNSRFAAFIDKVRFLEQQNKLLETKLQFYQNRECCQSNLEPLFAGYIETLRREAECVEADSGRLASELNHVQEVLEGYKKKYEEEVALRATAENEFVALKKDVDCAYLRKSDLEANVEALIQEIDFLRRLYEEEIRILQSHISDTSVVVKLDNSRDLNMDCIVAEIKAQYDDIATRSRAEAESWYRSKCEEMKATVIRHGETLRRTKEEINELNRMIQRLTAEVENAKCQNSKLEAAVAQSEQQGEAALSDARCKLAELEGALQKAKQDMACLIREYQEVMNSKLGLDIEIATYRRLLEGEEQRLCEGVEAVNVCVSSSRGGVVCGDLCVSGSRPVTGSVCSAPCNGNLVVSTGLCKPCGQLNTTCGGGSCGQGRH
B4: PRP16_HUMAN (protein, UniProt Q92620 2-1227, looked up)
Pre-mRNA-splicing factor …: GDTSEDASIHRLEGTDLDCQVGGLICKSKSAASEQHVFKAPAPRPSLLGLDLLASLKRREREEKDDGEDKKKSKVSSYKDWEESKDDQKDAEEEGGDQAGQNIRKDRHYRSARVETPSHPGGVSEEFWERSRQRERERREHGVYASSKEEKDWKKEKSRDRDYDRKRDRDERDRSRHSSRSERDGGSERSSRRNEPESPRHRPKDAATPSRSTWEEEDSGYGSSRRSQWESPSPTPSYRDSERSHRLSTRDRDRSVRGKYSDDTPLPTPSYKYNEWADDRRHLGSTPRLSRGRGRREEGEEGISFDTEEERQQWEDDQRQADRDWYMMDEGYDEFHNPLAYSSEDYVRRREQHLHKQKQKRISAQRRQINEDNERWETNRMLTSGVVHRLEVDEDFEEDNAAKVHLMVHNLVPPFLDGRIVFTKQPEPVIPVKDATSDLAIIARKGSQTVRKHREQKERKKAQHKHWELAGTKLGDIMGVKKEEEPDKAVTEDGKVDYRTEQKFADHMKRKSEASSEFAKKKSILEQRQYLPIFAVQQELLTIIRDNSIVIVVGETGSGKTTQLTQYLHEDGYTDYGMIGCTQPRRVAAMSVAKRVSEEMGGNLGEEVGYAIRFEDCTSENTLIKYMTDGILLRESLREADLDHYSAIIMDEAHERSLNTDVLFGLLREVVARRSDLKLIVTSATMDAEKFAAFFGNVPIFHIPGRTFPVDILFSKTPQEDYVEAAVKQSLQVHLSGAPGDILIFMPGQEDIEVTSDQIVEHLEELENAPALAVLPIYSQLPSDLQAKIFQKAPDGVRKCIVATNIAETSLTVDGIMFVIDSGYCKLKVFNPRIGMDALQIYPISQANANQRSGRAGRTGPGQCFRLYTQSAYKNELLTTTVPEIQRTNLANVVLLLKSLGVQDLLQFHFMDPPPEDNMLNSMYQLWILGALDNTGGLTSTGRLMVEFPLDPALSKMLIVSCDMGCSSEILLIVSMLSVPAIFYRPKGREEESDQIREKFAVPESDHLTYLNVYLQWKNNNYSTIWCNDHFIHAKAMRKVREVRAQLKDIMVQQRMSLASCGTDWDIVRKCICAAYFHQAAKLKGIGEYVNIRTGMPCHLHPTSSLFGMGYTPDYIVYHELVMTTKEYMQCVTAVDGEWLAELGPMFYSVKQAGKSRQENRRRAKEEASAMEEEMALAEEQLRARRQEQEKRSPLGSVRSTKIYTPGRKEQGEPMTPRRTPARFGL
B5: SAFB1_HUMAN (protein, UniProt Q15424 2-915, looked up)
Scaffold attachment factor B1: AETLSGLGDSGAAGAAALSSASSETGTRRLSDLRVIDLRAELRKRNVDSSGNKSVLMERLKKAIEDEGGNPDEIEITSEGNKKTSKRSSKGRKPEEEGVEDNGLEENSGDGQEDVETSLENLQDIDIMDISVLDEAEIDNGSVADCVEDDDADNLQESLSDSRELVEGEMKELPEQLQEHAIEDKETINNLDTSSSDFTILQEIEEPSLEPENEKILDILGETCKSEPVKEESSELEQPFAQDTSSVGPDRKLAEEEDLFDSAHPEEGDLDLASESTAHAQSSKADSLLAVVKREPAEQPGDGERTDCEPVGLEPAVEQSSAASELAEASSEELAEAPTEAPSPEARDSKEDGRKFDFDACNEVPPAPKESSTSEGADQKMSSPEDDSDTKRLSKEEKGRSSCGRNFWVSGLSSTTRATDLKNLFSKYGKVVGAKVVTNARSPGARCYGFVTMSTAEEATKCINHLHKTELHGKMISVEKAKNEPVGKKTSDKRDSDGKKEKSSNSDRSTNLKRDDKCDRKDDAKKGDDGSGEKSKDQDDQKPGPSERSRATKSGSRGTERTVVMDKSKGVPVISVKTSGSKERASKSQDRKSASREKRSVVSFDKVKEPRKSRDSESHSRVRERSEREQRMQAQWEREERERLEIARERLAFQRQRLERERMERERLERERMHVEHERRREQERIHREREELRRQQELRYEQERRPAVRRPYDLDRRDDAYWPEAKRAALDERYHSDFNRQDRFHDFDHRDRGRYPDHSVDRREGSRSMMGEREGQHYPERHGGPERHGRDSRDGWGGYGSDKRMSEGRGLPPPPRRDWGDHGRREDDRSWQGTADGGMMDRDHKRWQGGERSMSGHSGPGHMMNRGGMSGRGSFAPGGASRGHPIPHGGMQGGFGGQSRGSRPSDARFTRRY
B6: SIN3A_HUMAN (protein, UniProt Q96ST3 1-1273, looked up)
Paired amphipathic helix …: MKRRLDDQESPVYAAQQRRIPGSTEAFPHQHRVLAPAPPVYEAVSETMQSATGIQYSVTPSYQVSAMPQSSGSHGPAIAAVHSSHHHPTAVQPHGGQVVQSHAHPAPPVAPVQGQQQFQRLKVEDALSYLDQVKLQFGSQPQVYNDFLDIMKEFKSQSIDTPGVISRVSQLFKGHPDLIMGFNTFLPPGYKIEVQTNDMVNVTTPGQVHQIPTHGIQPQPQPPPQHPSQPSAQSAPAPAQPAPQPPPAKVSKPSQLQAHTPASQQTPPLPPYASPRSPPVQPHTPVTISLGTAPSLQNNQPVEFNHAINYVNKIKNRFQGQPDIYKAFLEILHTYQKEQRNAKEAGGNYTPALTEQEVYAQVARLFKNQEDLLSEFGQFLPDANSSVLLSKTTAEKVDSVRNDHGGTVKKPQLNNKPQRPSQNGCQIRRHPTGTTPPVKKKPKLLNLKDSSMADASKHGGGTESLFFDKVRKALRSAEAYENFLRCLVIFNQEVISRAELVQLVSPFLGKFPELFNWFKNFLGYKESVHLETYPKERATEGIAMEIDYASCKRLGSSYRALPKSYQQPKCTGRTPLCKEVLNDTWVSFPSWSEDSTFVSSKKTQYEEHIYRCEDERFELDVVLETNLATIRVLEAIQKKLSRLSAEEQAKFRLDNTLGGTSEVIHRKALQRIYADKAADIIDGLRKNPSIAVPIVLKRLKMKEEEWREAQRGFNKVWREQNEKYYLKSLDHQGINFKQNDTKVLRSKSLLNEIESIYDERQEQATEENAGVPVGPHLSLAYEDKQILEDAAALIIHHVKRQTGIQKEDKYKIKQIMHHFIPDLLFAQRGDLSDVEEEEEEEMDVDEATGAVKKHNGVGGSPPKSKLLFSNTAAQKLRGMDEVYNLFYVNNNWYIFMRLHQILCLRLLRICSQAERQIEEENREREWEREVLGIKRDKSDSPAIQLRLKEPMDVDVEDYYPAFLDMVRSLLDGNIDSSQYEDSLREMFTIHAYIAFTMDKLIQSIVRQLQHIVSDEICVQVTDLYLAENNNGATGGQLNTQNSRSLLESTYQRKAEQLMSDENCFKLMFIQSQGQVQLTIELLDTEEENSDDPVEAERWSDYVERYMNSDTTSPELREHLAQKPVFLPRNLRRIRKCQRGREQQEKEGKEGNSKKTMENVDSLDKLECRFKLNSYKMVYVIKSEDYMYRRTALLRAHQSHERVSKRLHQRFQAWVDKWTKEHVPREMAAETSKWLMGEGLEGLVPCTTTCDTETLHFVSINKYRVKYGTVFKAP

System: KDM4A-I71AzF
Assay: CASI: photo-crosslinking with HEK293T cell extracts, StrepTactin enrichment and LC-MS/MS proteomics;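 further: lysates from HEK293T cells pretreated with a KDM4 inhibitor to raise proteome methylation, affinity-purified after ±UV, gel-resolved, trypsin-digested, with exclusive unique peptides per protein averaged per condition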
Type: binding, human
Details: sheet "Final results but with 0.01"

Row | Molecule | Fold change (+UV/-UV)
1 | B1 | 0.3333
2 | B2 | 0.2
3 | B3 | 10
4 | B4 | 0
5 | B5 | 0.5
6 | B6 | 1.333
